Common to all, as to assay: ELISA
What all share (details): both partners purified
In general terms: ELISA stands for enzyme-linked immunosorbent assay.

Assay [1] addresses T1, light chain of BoNT/E1 (LC/E) (Clostridium botulinum, BoNT/E subtype …, UniProt Q00496).
T1 construct: source: E. coli BL21(DE3), purified (Ni-NTA, Streptactin, SEC)

In assay [2] the target is T2, carboxyl terminal domain of the BoNT/E heavy chain (HCE) (Clostridium botulinum, BoNT/E (subtype …)).
The target of assay [3] is T1, light chain of BoNT/E1 (LC/E). The source holds these as a separate data set.
In assay [4] the target is T2, carboxyl terminal domain of the BoNT/E …. The source holds these as a separate data set.

This note sets out measurements from article PMC7598594 (Toxins, 2020).

T1 sequence (Q00496 2-403): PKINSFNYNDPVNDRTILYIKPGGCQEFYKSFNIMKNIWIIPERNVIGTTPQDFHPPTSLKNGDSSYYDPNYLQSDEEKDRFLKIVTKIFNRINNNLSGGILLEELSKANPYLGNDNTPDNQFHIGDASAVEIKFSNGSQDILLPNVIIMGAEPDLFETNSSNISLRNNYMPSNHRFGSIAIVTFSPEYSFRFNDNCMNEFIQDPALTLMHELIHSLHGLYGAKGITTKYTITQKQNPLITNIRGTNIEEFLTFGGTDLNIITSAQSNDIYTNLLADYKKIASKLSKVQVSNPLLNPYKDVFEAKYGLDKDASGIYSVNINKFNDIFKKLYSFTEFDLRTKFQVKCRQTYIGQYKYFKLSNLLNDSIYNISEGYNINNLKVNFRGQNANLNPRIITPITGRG

B1: JSI-F2 (VHH)
VHH: SGGGLVQAGGSLRLSCAASGGTVSKYPMGWFRQAPGQEREFVAALSRDTDYTYYADSVKGRFTISRDNAKNTVYLQMNSLKREDTALYYCAAGSTDLKYSASVYADDYDYWGQGTQVTVSS
notes: source: E. coli, purified
Take B1: in assay [1], the binding result was “no binding (tested: 125 nM)”. Further, a half-maximal response in assay [2] (EC50) required 2 nM.

B2: JSI-F6 (VHH)
VHH: SGGGLVQAGGSLRVSCAASGRTFSTYAMGWFRQAPGKEREFVAAITKSGDYAYYADAVKGRFTISRDNAKNTVSLQMNSLKDEDTAVYYCAAHRSPLYSASVYDRDYDYWGQGTQVTVSS
notes: source: E. coli, purified
With B2, the binding result in assay [1] is given as “no binding (tested: 125 nM)”. Also, the EC50 – broadly, the concentration giving half of the maximal effect – in assay [2] was 3 nM.

B3: JSI-C7 (VHH)
VHH: SGGGLMQAGGSLRLACAASGRPFSTYFMGWFRQAPGKERDFVAVIDWSDGSTDYADSVKGRFTISRDNAKNTVYLQMNSLKPEDTAVYYCAARGSYLYTWPLEPDEYDYWGQGTQVTVSS
notes: source: E. coli, purified
On to B3, for which, in assay [1], the binding result is given as “no binding (tested: 125 nM)”.

B4: JLF-H5 (VHH)
VHH: QVQLVESGGGSVQPGGSLRLSCVASGFTFTNYAMAWVRQVSGKGLEGVAAISSEGFIYIPDSVKGRFTISRDNAKNTVYLQMDNLQSEDTAIYHCAAVDWKRVAAMNSYNMDYWGKGTPVTVSA
notes: source: E. coli, purified
B4: the EC50 in assay [3] amounted to 10 nM.

B5: JSI-A4 (VHH)
VHH: SGGGLVQAGGSLRLSCAASGLTFSDTAVGWFRQAPGKEREFVAAAVIWSGVNTRYADSVRGRFTISRDSAKNTVYLQMNTLKPEDTAIYYCAAGRGAAAFPTDRSQYVYWGQGTQVTVSS
notes: source: E. coli, purified
Take B5: in assay [1], the binding result was “no binding (tested: 125 nM)”.

B6: JLG-G12 (VHH)
VHH: QLQLVETGGGLVQAGGSLRLSCAASGRTFSSYAVGWFRQAPGKEREFVAAISWSGSYAYYADSVKGRFTISRDNAKNTVYLQMNSLKPEDTAVYYCNGDLEGYSNHETGDYWGQGTQVTVSS
notes: source: E. coli, purified
In the case of B6, the EC50 in assay [3] came to 2 nM.

B7: JLE-G6 (VHH)
VHH: QLQLVETGGGLVKPGGSLRLSCVVSGFTFDDYRMAWVRQAPGKELEWVSSIDSWSINTYYEDSVKGRFTISTDNAKNTLYLQMSSLKPEDTAVYYCAAEDRLGVPTINAHPSKYDYNYWGQGTQVTVSS
notes: source: E. coli, purified
In assay [4], B7 showed an EC50 of 3 nM. This counts as single-digit nanomolar.

B8: JSI-G9 (VHH)
VHH: SGGGMVQAGGSLRLSCAASGRTASLDGMGWFRQAPGKEREFVGSINWRIGTTYYIDSVQGRFTISRDNARNTVYLQMISLKPEDTAVYYCAARLRRTDLISSPASYEYWGHGTQVTVSS
notes: source: E. coli, purified
Consider B8, for which, in assay [1], the binding result was “no binding (tested: 125 nM)”.

B9: JSI-H9 (VHH)
VHH: SGGGSVQAGGSLGLTCQGSGDAVRRGWFRQAPGKEREFVAAITSYGGTTFYADSVKGRFTVSRDNAKNTVYLQMISLKPEDTAVYYCAAASRPTGWPYEYDVWGQGTQVTVSS
notes: source: E. coli, purified
Turning to B9, the binding result in assay [1] is on record as “no binding (tested: 125 nM)”.
